This passage reports stimulation of the actin-activated ATPase activity of Myo5a-FL by Mlph-GTBDP (EGTA conditions, 40 uM actin), hyperbolic fit: apparent Kd results from paper PMC4454200.

This assay addresses Full-length mouse melanocyte-type myosin-5a (Myo5a-FL) (mouse) (UniProt Q99104).

Full-length mouse melanocyte-type myosin-5a (Myo5a-FL) (mouse), sequence (Q99104 whole entry): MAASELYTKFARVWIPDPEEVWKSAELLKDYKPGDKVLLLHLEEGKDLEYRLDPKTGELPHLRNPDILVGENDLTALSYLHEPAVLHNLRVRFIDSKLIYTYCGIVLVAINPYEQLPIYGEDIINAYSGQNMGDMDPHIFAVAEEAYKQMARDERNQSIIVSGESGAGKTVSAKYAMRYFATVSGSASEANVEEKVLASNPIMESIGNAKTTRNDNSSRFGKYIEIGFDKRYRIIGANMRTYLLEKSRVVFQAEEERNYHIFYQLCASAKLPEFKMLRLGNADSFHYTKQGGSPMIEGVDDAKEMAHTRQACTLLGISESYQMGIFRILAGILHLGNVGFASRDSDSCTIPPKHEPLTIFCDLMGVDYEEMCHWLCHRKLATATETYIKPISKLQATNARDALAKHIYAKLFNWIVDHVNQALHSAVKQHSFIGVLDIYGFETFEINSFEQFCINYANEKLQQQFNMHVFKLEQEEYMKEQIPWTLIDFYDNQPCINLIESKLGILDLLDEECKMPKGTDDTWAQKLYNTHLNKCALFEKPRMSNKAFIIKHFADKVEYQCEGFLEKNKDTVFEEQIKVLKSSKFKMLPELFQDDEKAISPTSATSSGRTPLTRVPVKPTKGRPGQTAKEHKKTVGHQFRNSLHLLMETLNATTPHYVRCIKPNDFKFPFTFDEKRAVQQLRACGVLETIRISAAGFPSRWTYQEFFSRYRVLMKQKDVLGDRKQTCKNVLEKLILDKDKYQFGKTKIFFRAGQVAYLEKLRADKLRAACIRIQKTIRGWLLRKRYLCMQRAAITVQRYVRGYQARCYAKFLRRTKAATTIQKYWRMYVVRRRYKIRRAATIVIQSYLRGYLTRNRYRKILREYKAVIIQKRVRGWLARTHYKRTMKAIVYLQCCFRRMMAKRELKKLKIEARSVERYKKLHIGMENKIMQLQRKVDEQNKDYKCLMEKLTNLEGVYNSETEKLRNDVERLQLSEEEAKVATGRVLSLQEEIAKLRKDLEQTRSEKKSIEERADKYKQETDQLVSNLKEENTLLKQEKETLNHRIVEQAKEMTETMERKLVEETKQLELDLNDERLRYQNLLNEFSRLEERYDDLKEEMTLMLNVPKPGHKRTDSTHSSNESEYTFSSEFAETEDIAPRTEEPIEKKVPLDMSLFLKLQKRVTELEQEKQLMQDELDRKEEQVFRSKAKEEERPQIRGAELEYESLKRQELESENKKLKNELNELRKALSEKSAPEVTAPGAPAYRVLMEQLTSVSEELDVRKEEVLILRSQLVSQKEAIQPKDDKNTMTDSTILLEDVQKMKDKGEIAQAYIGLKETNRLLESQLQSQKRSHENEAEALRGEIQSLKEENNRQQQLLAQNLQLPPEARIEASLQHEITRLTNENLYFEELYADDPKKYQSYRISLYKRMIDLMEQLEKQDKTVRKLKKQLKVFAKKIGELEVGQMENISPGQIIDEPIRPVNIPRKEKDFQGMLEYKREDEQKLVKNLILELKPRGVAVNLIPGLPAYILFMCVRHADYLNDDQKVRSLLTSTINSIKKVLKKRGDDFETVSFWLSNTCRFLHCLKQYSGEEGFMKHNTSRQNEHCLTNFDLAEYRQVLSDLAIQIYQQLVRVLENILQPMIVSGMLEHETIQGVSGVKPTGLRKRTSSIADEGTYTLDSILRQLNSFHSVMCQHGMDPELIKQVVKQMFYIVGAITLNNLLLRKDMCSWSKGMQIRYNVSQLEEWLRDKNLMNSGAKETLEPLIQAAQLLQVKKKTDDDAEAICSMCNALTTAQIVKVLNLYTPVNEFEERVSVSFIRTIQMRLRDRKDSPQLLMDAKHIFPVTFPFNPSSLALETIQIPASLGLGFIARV

In the case of RDQPLNSKKKKRLLSFRDVDFEEDSDY [Mlph-GTBDP, 26-residue Myo5a-GTD binding peptide of melanophilin with a C-terminal tyrosine], the stimulation of the actin-activated ATPase activity of Myo5a-FL by Mlph-GTBDP (EGTA conditions, 40 uM actin), hyperbolic fit: apparent Kd is 19.8 µM.
